B1: HFB3-18hz1-hG1 (humanized monoclonal antibody) (antibody, V domains shown)
VH: EVQLVESGGGLVQPGGSLKLSCAASGFTFSDAWMDWVRQASGKGLEWVGEVRNKANNHATYYAASVKGRFTISRDDSKNTAYLQMNSLKTEDTAVYYCTRSVGGYGTTYWYFDVWGQGTTVTVSS
VL: DIVMTQSPDSLAVSLGERATINCKSSQNLLNSGNQKNYLAWYQQKPGQPPKLLIFGASTRESGVPDRFSGSGSGTDFTLTISSLQAEDVAVYYCQSEHSYPYTFGQGTKLEIKR
B2: HFB3-1-hG1 (mouse monoclonal antibody) (antibody, human IgG1, kappa, V domains shown)
VH: EFQLQQSGPELVKPGASVKISCKASSYSFTDYNMNWVKQSNGKSLEWIGIIFPKYGTTSYNQKFKGKATLTVDQSSSTAYMQLNSLTSEDSAVYYCATDGGTWYFDVWGTGTTVTVSS
VL: QIVLTQSPALMSASPGEKVTMTCSASSSVTYMYWYQQKPRSSPKPWIYLTSNLASGVPARFSGSGSGTSYSLTISSMEAEDAATYYCQQWSSNPPTFGSGTKLEIKR
notes: also called human-mouse chimeric monoclonal antibody HFB3-1; parental HFB3-1-hG1
B3: HFB3-14hz1c-hG1 (humanized monoclonal antibody) (antibody, V domains shown)
VH: QVQLVQSGAEVKKPGSSVKVSCKASGYTFTDYYMNWVRQAPGQGLEWMGDINPNDGGTTYAQKFQGRVTITADESTSTAYMELSSLRSEDTAVYFCAREGNYYAYDVRVWYFDVWGQGTTVTVSS
VL: DIQMTQSPSSLSASVGDRVTITCGASQDIITYLNWYQQKPGKAVKLLIYSTSSLNSGVPSRFSGSGSGTDFTLTISSLQPEDFATYYCQQYSELPYTFGGGTKVELKR
notes: also called HFB3-141c-hG1
B4: HFB3-18-hG1 (mouse monoclonal antibody) (antibody, human IgG1, kappa, V domains shown)
VH: EVKLEESGGGLVQPGGSMKLSCAASGFTFSDAWMDWVRQSPEKGLEWVAEVRNKANNHATYYAESVKGRFTISRDDSKSSVYLQMNSLRAEDTGIYYCTRSVGGYGTTYWYFDVWGTGTTVTVSS
VL: DIVMTQSPSSLSVSAGEKVTMSCKSSQNLLNSGNQKNYLAWYQQKPGQPPKLLIFGASTRESGVPDRFTGSGSGTDFTLTISSVQAEDLAVYYCQSEHSYPYTFGGGTKLEIKR
notes: also called human-mouse chimeric monoclonal antibody HFB3-18
B5: HFB3-1hz6-hG1 (humanized monoclonal antibody) (antibody, V domains shown)
VH: QVQLVQSGAELKKPGASVKVSCKASSYSFTDYNMNWVRQAPGQSLEWMGIIFPKYGTTSYAQKLQGRVTLTTDTSTSTAYMELRSLRSDDTAVYYCATDGGTWYFDVWGTGTTVTVSS
VL: DIQLTQSPSFLSASVGDRVTITCRASSSVTYMYWYQQKPGKAPKPWIYLTSNLASGVPSRFSGSGSGTEYTLTISSLQPEDAATYYCQQWSSNPPTFGSGTKLEIKR

Legend:
[1] = biological target: T1, His-tagged recombinant human TNFR1 (human, UniProt P19438 30-211, limits assumed); test: ELISA on recombinant hTNFR1-His
T1 construct: also called rhTNFR1; hTNFR1-His; not shown: His tag
T1 sequence (looked up): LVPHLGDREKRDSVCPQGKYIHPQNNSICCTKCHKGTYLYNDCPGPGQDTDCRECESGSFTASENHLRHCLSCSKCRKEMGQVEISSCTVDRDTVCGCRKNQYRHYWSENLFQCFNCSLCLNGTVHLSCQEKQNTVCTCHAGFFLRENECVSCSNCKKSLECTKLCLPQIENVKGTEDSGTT

[2] = biological target: T2, His-tagged recombinant human TNFR2 (human, UniProt P20333 23-257); test: ELISA on recombinant hTNFR2-His (FIG. 14A)
T2 construct: extracellular domain; also called rhTNFR2; hTNFR2-His; not shown: His tag
T2 sequence (looked up): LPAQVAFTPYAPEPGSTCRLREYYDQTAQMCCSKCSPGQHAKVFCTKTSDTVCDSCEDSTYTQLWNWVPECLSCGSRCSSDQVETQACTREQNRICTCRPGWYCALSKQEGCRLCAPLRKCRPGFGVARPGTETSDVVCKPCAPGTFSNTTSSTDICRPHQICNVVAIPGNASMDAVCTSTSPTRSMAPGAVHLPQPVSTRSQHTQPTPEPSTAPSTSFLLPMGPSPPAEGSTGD

[3] = biological target: T3, human TNFR2 expressed on cells (CHO.hHFB3 / CHO.hTNFR2 cells; primary human T cells) (human, UniProt P20333 23-461); test: flow cytometry on CHO cells expressing human TNFR2 (FIG. 12A)
T3 construct: whole, on cells
T3 sequence (looked up): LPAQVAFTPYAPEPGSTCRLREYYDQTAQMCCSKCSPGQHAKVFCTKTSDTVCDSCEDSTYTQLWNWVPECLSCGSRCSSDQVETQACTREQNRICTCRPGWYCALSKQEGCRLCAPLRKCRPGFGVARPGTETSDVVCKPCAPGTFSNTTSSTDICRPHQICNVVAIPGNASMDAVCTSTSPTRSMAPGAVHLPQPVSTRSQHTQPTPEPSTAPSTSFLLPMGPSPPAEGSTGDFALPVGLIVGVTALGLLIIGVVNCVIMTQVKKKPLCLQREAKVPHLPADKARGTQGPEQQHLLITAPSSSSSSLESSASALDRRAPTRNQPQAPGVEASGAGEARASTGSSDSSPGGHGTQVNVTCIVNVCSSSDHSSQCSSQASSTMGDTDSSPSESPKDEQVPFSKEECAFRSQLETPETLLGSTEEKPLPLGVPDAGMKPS

[4] = biological target: T1, His-tagged recombinant human TNFR1; test: ELISA, plate coated with 0.1 µg/mL His-tagged recombinant human TNFR1
Experimental: (§1) Briefly, tissue culture plates were coated with either 0.1 μg/mL of His-tagged recombinant human TNFR2 or TNFR1 overnight at 4° C. The coated plates were then incubated for about 1 hour on ice with 1:3 serial dilutions of each test antibodies, with starting (highest) concentration of about 66 nM antibody. Antibodies bound to the cells were detected by using 1:5000 dilution of HRP-labeled anti-human Fc antibody and TMB substrate. Isotype matched negative control antibody F3, as well as the MR2-1 positive control antibody specific for rhTNFR2 and a positive control antibody specific for rhTNFR1 were also used in this assay. The data, including EC₅₀ values for each antibody, were compiled in FIG. 4A.

[5] = biological target: T2, His-tagged recombinant human TNFR2; test: ELISA, plate coated with 0.1 µg/mL His-tagged recombinant human TNFR2, HRP anti-human Fc
Experimental: as §1

[6] = biological target: T3, human TNFR2 expressed on cells …; test: flow cytometry on CHO cells expressing human TNFR2 (CHO.hHFB3), anti-human Fc-AF647 detection
Experimental: (§2) These monoclonal antibodies were then tested for their abilities to bind human and monkey TNFR2 expressed by CHO cells (CHO.hHFB3 and CHO.mkHFB3 cells respectively). Briefly, about 40,000 CHO.hHFB3 or CHO.mkHFB3 cells were seeded in tissue culture wells, and serial 1:3 dilutions of each test antibodies, with starting (highest) concentration of about 66 nM antibody, were added to each cell type and incubated for about an hour. Antibodies bound to the cells were detected by using 17 nM of anti-human Fc antibody labeled by AF647 (ALEXSA FLUOR® 647 fluorescent dye). An isotype matched negative control antibody was also used in this assay. The data, including EC₅₀ values and Eₘₐₓ for each antibody, were compiled in FIG. 2A.

[7] = biological target: T4, mouse TNFR2 expressed on CHO cells (mouse, UniProt P25119 23-474); test: flow cytometry on CHO cells expressing mouse TNFR2
T4 construct: whole, on cells; also called mouse ortholog
T4 sequence (looked up): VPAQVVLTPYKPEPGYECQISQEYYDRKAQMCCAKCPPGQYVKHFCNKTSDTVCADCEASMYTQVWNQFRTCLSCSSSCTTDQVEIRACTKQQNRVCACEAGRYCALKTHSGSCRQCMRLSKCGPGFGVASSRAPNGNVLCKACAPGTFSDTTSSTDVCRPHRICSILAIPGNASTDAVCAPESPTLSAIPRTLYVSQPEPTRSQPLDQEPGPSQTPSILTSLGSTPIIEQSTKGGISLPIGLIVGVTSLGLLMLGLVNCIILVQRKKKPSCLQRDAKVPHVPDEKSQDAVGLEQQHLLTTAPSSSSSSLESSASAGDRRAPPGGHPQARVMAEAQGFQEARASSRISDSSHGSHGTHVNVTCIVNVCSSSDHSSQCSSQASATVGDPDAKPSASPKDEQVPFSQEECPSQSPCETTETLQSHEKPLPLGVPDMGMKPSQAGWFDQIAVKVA
Experimental: as §2
The same experiments were also set up to test the ability of the test antibodies to bind CHO cells expressing mouse TNFR2 and the parental CHO cell lines (which may or may not express hamster TNFR2).

Binder | binding result [1] | binding result [2] | binding result [3] | binding result [4] | binding result [5] | binding result [6] | binding result [7]
B1 | no binding | binds | binds | – | – | – | –
B2 | – | – | – | no binding (tested: highest concentration about 66 nM) | binds | binds | –
B3 | no binding | – | – | – | – | – | –
B4 | – | – | – | no binding (tested: highest concentration about 66 nM) | binds | binds | binds
B5 | no binding | binds | binds | – | – | – | –

Reference: patent US20230045791A1 (HIFIBIO, published 2023)
